Measured values published in publication PMC10866687.

Target: GFP-tagged Tks5 (GFP-Tks5), in 293T cells
Experiment: coimmunoprecipitation (IP FLAG, immunoblot quantification)
Details: n = 4 experiments, parent: est. 100, read off a plot

Row | Substance | percent of parent [% WT]
1 | FLAG-MAP1B-LC1 (wild type) (from UniProt P46821) K41A; P42A | 120
2 | FLAG-MAP1B-LC1 (wild type) (from UniProt P46821) K60A; P61A | 78
3 | FLAG-MAP1B-LC1 (wild type) (from UniProt P46821) K95A; P96A | 110
4 | FLAG-MAP1B-LC1 (wild type) (from UniProt P46821) P6A; R7A | 120
5 | FLAG-MAP1B-LC1 (wild type) (from UniProt P46821) P66A; K67A; P68A | 70
6 | FLAG-MAP1B-LC1 (wild type) (from UniProt P46821) P145A; P146A | 130
